The values below come from article PMC2796168.

Test [1] deals with non-glycosylated Evasin-1 (Rhipicephalus sanguineus) (UniProt P0C8E7). The test can be described thus: crystal structure; complex of non-glycosylated Evasin-1 and ΔAla1-CCL3 (A10T), formed overnight at 4°C at a molar ratio of 1:2.5, captured on Ni-NTA; crystals in 24% PEG 3350, 0.2 M ammonium sulphate, 0.1 M HEPES pH 8.1; 1.9 Å.
Another test addresses CCL18 (Homo sapiens) (UniProt P55774). Conditions: cited from earlier work.
Another test has as its target CCL4 (Homo sapiens) (UniProt P13236). Conditions: cited from earlier work.
Another test has as its target CCL3 (Homo sapiens) (UniProt P10147). The note with it: cited from earlier work.

As a reminder, the stoichiometry N is a count of units in the complex or per binding partner. What is called Kd is the concentration at which binding is half-saturated.

Chain of Evasin-1 (P0C8E7 21-114): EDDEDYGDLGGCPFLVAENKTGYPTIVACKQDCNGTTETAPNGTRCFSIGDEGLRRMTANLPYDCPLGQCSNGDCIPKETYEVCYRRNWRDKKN
Chain of CCL3 (Homo sapiens) (P10147 24-92): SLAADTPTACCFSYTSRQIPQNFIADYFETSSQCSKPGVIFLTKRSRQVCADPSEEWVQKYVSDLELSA
Chain of CCL18 (Homo sapiens) (P55774 24-89): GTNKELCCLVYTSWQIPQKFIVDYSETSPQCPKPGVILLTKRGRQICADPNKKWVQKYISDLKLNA
Chain of CCL4 (Homo sapiens) (P13236 24-92): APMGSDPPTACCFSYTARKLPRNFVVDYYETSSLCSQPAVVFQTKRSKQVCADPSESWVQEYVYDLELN
Chain of non-glycosylated Evasin-1 (Rhipicephalus sanguineus) (P0C8E7 21-114): as the sequence (P0C8E7 21-114) above

As to ΔAla1-CCL3 (A10T) (ligand), the stoichiometry N in test [1] is 1.
As to Evasin-1 (from UniProt P0C8E7), the dissociation constant (Kd) was 3.2 nM with CCL18 (Homo sapiens), 0.81 nM in the test with CCL4 (Homo sapiens) and 0.16 nM in the test with CCL3 (Homo sapiens).
